Data as given in the supplement of paper PMC7125110.
± gives the standard error. For some assays here: Variants at the floor of the assay were thinned out.

B1: glmS ribozyme (parent)
chain: AUAAAAGCGCCAGAACUACAGAAAUGUAGUUGACGAGGAGGAGGUUUAUCGAAUUUUCGGCGGAUGCCUCCAAA

Key:
Conditions in all cases: with glucosamine-6-phosphate
glucosamine-6-phosphate [1] = variants of: B1; test: kcat; higher = faster cleavage; RNA array
Procedure, shortened: (§1)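 E. coli RNA polymerase transcribed barcoded ribozyme variants in situ on sequenced MiSeq chips, which were tracked via a hybridised Cy3 probe at 37 °C. Tiles were imaged over ~14 h after glucosamine-6-phosphate (40 μM to 10 mM) in HEPES/KCl/Mg(OAc)2 buffer was flowed in. Normalised per-tile medians were fit to one- or two-exponential decays for kobs, and kcat and KM came from weighted Michaelis–Menten fits.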

glucosamine-6-phosphate [2] = variants of: B1; test: self-cleavage kobs at 40 uM GlcN6P; higher = faster cleavage; RNA array
Procedure, shortened: as §1

glucosamine-6-phosphate [3] = variants of: B1; test: self-cleavage kobs at 160 uM GlcN6P; higher = faster cleavage; RNA array
Procedure, shortened: as §1

glucosamine-6-phosphate [4] = variants of: B1; test: self-cleavage kobs at 640 uM GlcN6P; higher = faster cleavage; RNA array
Procedure, shortened: as §1

glucosamine-6-phosphate [5] = variants of: B1; test: self-cleavage kobs at 2500 uM GlcN6P; higher = faster cleavage; RNA array
Procedure, shortened: as §1

glucosamine-6-phosphate [6] = variants of: B1; test: self-cleavage kobs at 10000 uM GlcN6P; higher = faster cleavage; RNA array
Procedure, shortened: as §1

glucosamine-6-phosphate [7] = variants of: B1; test: KM; higher = weaker cofactor use; RNA array
Procedure, shortened: as §1

Row | Variant | kcat (glucosamine-6-phosphate [1]) | self-cleavage kobs at 40 uM GlcN6P (glucosamine-6-phosphate [2]) | self-cleavage kobs at 160 uM GlcN6P (glucosamine-6-phosphate [3]) | self-cleavage kobs at 640 uM GlcN6P (glucosamine-6-phosphate [4]) | self-cleavage kobs at 2500 uM GlcN6P (glucosamine-6-phosphate [5]) | self-cleavage kobs at 10000 uM GlcN6P (glucosamine-6-phosphate [6]) | KM (glucosamine-6-phosphate [7])
1 | U47G C68G | 8.45e-05 ± 1.2e-05 s⁻¹ | 5.34e-05 ± 1e-05 s⁻¹ | 0.000166 ± 2.8e-05 s⁻¹ | 8.26e-05 ± 1e-05 s⁻¹ | 0.000104 ± 1.2e-05 s⁻¹ | 7.41e-05 ± 6.8e-06 s⁻¹ | –
2 | C11U G37A | 7.88e-05 ± 6.9e-07 s⁻¹ | – | – | 2.98e-05 ± 9.1e-06 s⁻¹ | 5.51e-05 ± 9.5e-06 s⁻¹ | 7.12e-05 ± 8.2e-06 s⁻¹ | 1070 ± 36 µM
3 | A53U U65G | 0.00461 ± 0.00078 s⁻¹ | 3.59e-05 ± 7e-06 s⁻¹ | 0.000238 ± 5.5e-05 s⁻¹ | 0.000611 ± 0.00011 s⁻¹ | 0.00152 ± 0.0002 s⁻¹ | 0.00323 ± 0.00034 s⁻¹ | 4560 ± 1200 µM
4 | A53C C71U | 0.00685 ± 0.001 s⁻¹ | 0.000156 ± 2.5e-05 s⁻¹ | 0.000539 ± 0.0001 s⁻¹ | 0.00167 ± 0.00036 s⁻¹ | 0.00474 ± 0.00067 s⁻¹ | 0.00509 ± 0.0011 s⁻¹ | 1760 ± 360 µM
5 | A48U C71A | 0.000129 ± 1.2e-05 s⁻¹ | – | – | – | 0.000102 ± 2.6e-05 s⁻¹ | 0.000111 ± 1.4e-05 s⁻¹ | 1380 ± 540 µM
6 | U54A U56A | 0.0109 ± 0.0014 s⁻¹ | 0.00022 ± 4e-05 s⁻¹ | 0.000706 ± 0.0002 s⁻¹ | 0.00224 ± 0.00048 s⁻¹ | 0.00712 ± 0.002 s⁻¹ | 0.00887 ± 0.0017 s⁻¹ | 2140 ± 380 µM
7 | G13C U31A | 0.000405 ± 2e-05 s⁻¹ | – | – | 7.16e-05 ± 1.3e-05 s⁻¹ | 0.00017 ± 3.3e-05 s⁻¹ | 0.000314 ± 4.2e-05 s⁻¹ | 3100 ± 280 µM
8 | G44U U56A | 0.000132 ± 9e-06 s⁻¹ | < 1e-05 s⁻¹ | – | – | 6.59e-05 ± 1e-05 s⁻¹ | 0.000102 ± 9.4e-06 s⁻¹ | 2840 ± 550 µM
9 | G37C C71A | 1.96e-05 ± 6.3e-06 s⁻¹ | – | – | – | – | – | –
10 | C67G | 0.00185 ± 0.00017 s⁻¹ | 3.28e-05 ± 1e-06 s⁻¹ | 0.000109 ± 2.8e-06 s⁻¹ | 0.00046 ± 4e-05 s⁻¹ | 0.00108 ± 3.9e-05 s⁻¹ | 0.00145 ± 3.7e-05 s⁻¹ | 2390 ± 300 µM
11 | A48G C71U | 8.1e-05 ± 1.3e-05 s⁻¹ | – | – | 4.86e-05 ± 8.2e-06 s⁻¹ | 0.000101 ± 1.1e-05 s⁻¹ | 7.03e-05 ± 6.3e-06 s⁻¹ | –
12 | U47G U56C A64G | 0.000113 ± 1.2e-05 s⁻¹ | – | – | 2.82e-05 ± 1.4e-05 s⁻¹ | 7.42e-05 ± 1.5e-05 s⁻¹ | 9.62e-05 ± 1.7e-05 s⁻¹ | 1500 ± 480 µM
13 | U46C C67A | 0.000818 ± 0.00012 s⁻¹ | 3.57e-05 ± 1.7e-05 s⁻¹ | 6.58e-05 ± 2.1e-05 s⁻¹ | 0.000284 ± 5.6e-05 s⁻¹ | 0.00062 ± 0.00012 s⁻¹ | 0.000676 ± 0.00011 s⁻¹ | 1380 ± 390 µM
14 | C10U A53U | 1.55e-05 ± 3.9e-06 s⁻¹ | – | – | – | – | – | –
